Experimental data reported in the supplement of paper PMC7877785.
± gives the uncertainty stated by the source.

Experiment: self-splicing fitness, log relative to wild type (ln ratio); higher = more splicing; Tetrahymena group I intron in knt gene, E. coli kanamycin selection, DiMSum; sequences stand for … in CUCUCU…GGAGGGAAAAGUUAUCAGGCAUGCACCUGGUAGCUAGUCUUUAAACCAAUAGAUUGCAUCGGUUUAAAAGGCAAGACCGUCAAAUUGCGGGAAAGGGGUCAACAGCCGUUCAGUACCAAGUCUCAGGGGAAACUUUGAGAUGGCCUUGCAAAGGGUAUGGUAAUAAGCUGACGGACAUGGUCCUAACCACGCAGCCAAGUCCUAAGUCAACAGAUCUUCUGUUGAUAUGGAUGCAGUUCACAGACUAAAUGUCGGUCGGGGAAGAUGUAUUCUUCUCAUAAGAUAUAGUCGGACCUCUCCUUAAUGGGAGCUAGCGGAUGAAGUGAUGCAACACUGGAGCCGCUGGGAACUAAUUUGUAUGCGAAAGUAUAUUGAUUAGUUUUGGAGUACUCGUGGUCG
Method in brief: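 The eight P1ex-region nucleotides of an intron in the knt kanamycin-resistance gene on pET-22b(+) were all randomised and the library put into E. coli BL21(DE3). Six replicate transformations were grown overnight at 37°C or 30°C on LB agar with or without 25 μg/mL kanamycin, together with 100 μg/mL carbenicillin, 50 μM IPTG and 0.2% rhamnose. Colonies were pooled and amplicon-sequenced on an Illumina HiSeq 2500. Fitness from DiMSum is the error-weighted combination of wild-type-normalised replicate fold changes, kanamycin over none.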

Sequence | self-splicing fitness (ln) (30 °C) | self-splicing fitness (ln) (37 °C)
AUUCAGCAAUAUUACGUGGA | -2.72 ± 0.18 | -1.79 ± 0.12
AUUCAGCAAUAUUACGUGGC | -3.76 ± 0.14 | -2.21 ± 0.16
AUUCAGCAAUAUUACGUGUU | -2.68 ± 0.1 | -1.39 ± 0.089
AUUCAGCAAUAUUACGUUAU | -1.22 ± 0.079 | 0.0898 ± 0.095
AUUGAGCAAUAUUACGAAUU | -2.85 ± 0.23 | -1.71 ± 0.24
AUUGAGCAAUAUUACGACAA | -2.28 ± 0.29 | -1.31 ± 0.23
AUUGAGCAAUAUUACGACUC | -2.94 ± 0.29 | -1.59 ± 0.27
AUUGAGCAAUAUUACGAGUG | -2.69 ± 0.28 | -2.76 ± 0.38
AUUGAGCAAUAUUACGAUAU | -2.76 ± 0.18 | -1.04 ± 0.17
AUUGAGCAAUAUUACGCAGC | -1.85 ± 0.29 | -2.7 ± 0.38
AUUGAGCAAUAUUACGCCCA | -2.25 ± 0.25 | -1.39 ± 0.39
AUUGAGCAAUAUUACGCCUA | -1.99 ± 0.2 | -1.52 ± 0.2
AUUGAGCAAUAUUACGCCUC | -2.53 ± 0.48 | -1.27 ± 0.42
AUUGAGCAAUAUUACGCGGU | -2.19 ± 0.19 | 
AUUGAGCAAUAUUACGCGUC | -3.26 ± 0.19 | -1.73 ± 0.2
AUUGAGCAAUAUUACGGCGG | -3.01 ± 0.19 | -1.05 ± 0.38
AUUGAGCAAUAUUACGUAAC | -1.3 ± 0.3 | -1.53 ± 0.31
AUUGAGCAAUAUUACGUGGU | -3.28 ± 0.21 | -3.12 ± 0.43
AUUGAGCAAUAUUACGUUAU | -2.61 ± 0.2 | -1.86 ± 0.24
AUUGAGCAAUAUUACGUUGG | -3.62 ± 0.36 | -0.682 ± 0.17
AUUUAGCAAUAUUACGAAGU | -1.91 ± 0.23 | -1.24 ± 0.18
AUUUAGCAAUAUUACGACCU | 0.0405 ± 0.29 | 0.114 ± 0.29
AUUUAGCAAUAUUACGACGA | -0.672 ± 0.15 | 0.131 ± 0.18
AUUUAGCAAUAUUACGACUA | -0.0865 ± 0.18 | -0.454 ± 0.15

Sequence | self-splicing fitness (ln) (30 °C) | self-splicing fitness (ln) (37 °C)
AUUUAGCAAUAUUACGAGAU | -3.55 ± 0.4 | -1.41 ± 0.28
AUUUAGCAAUAUUACGAGGA | -2.7 ± 0.49 | -2.18 ± 0.4
AUUUAGCAAUAUUACGAUCU | 0.177 ± 0.13 | 0.0446 ± 0.11
AUUUAGCAAUAUUACGAUUC | -1.73 ± 0.22 | -0.798 ± 0.26
AUUUAGCAAUAUUACGCACG | -1.9 ± 0.28 | -0.778 ± 0.2
AUUUAGCAAUAUUACGCGAG | -2.19 ± 0.22 | -0.658 ± 0.2
AUUUAGCAAUAUUACGCGUG | -1.2 ± 0.14 | -0.97 ± 0.14
AUUUAGCAAUAUUACGCUCC | -1.4 ± 0.47 | 
AUUUAGCAAUAUUACGCUCG | -0.131 ± 0.1 | 0.715 ± 0.15
AUUUAGCAAUAUUACGCUCU | 0.51 ± 0.27 | 0.235 ± 0.44
AUUUAGCAAUAUUACGCUUU | -2.7 ± 0.16 | -1.2 ± 0.11
AUUUAGCAAUAUUACGGCAG | -2.47 ± 0.14 | -0.321 ± 0.15
AUUUAGCAAUAUUACGGGCA | -1.56 ± 0.19 | -0.452 ± 0.26
AUUUAGCAAUAUUACGGGCU | -2.71 ± 0.19 | -0.78 ± 0.16
AUUUAGCAAUAUUACGGGUG | -3.24 ± 0.14 | -1.57 ± 0.14
AUUUAGCAAUAUUACGGUGA | -1.17 ± 0.27 | -1.7 ± 0.19
AUUUAGCAAUAUUACGUAUU | -3 ± 0.16 | -1.47 ± 0.19
AUUUAGCAAUAUUACGUCAG | -3.7 ± 0.28 | -0.451 ± 0.2
AUUUAGCAAUAUUACGUCGA | -2.64 ± 0.29 | -0.501 ± 0.19
AUUUAGCAAUAUUACGUCUC | -3.59 ± 0.37 | -2.18 ± 0.3
AUUUAGCAAUAUUACGUGCG | -1.82 ± 0.091 | -0.316 ± 0.12
AUUUAGCAAUAUUACGUGGC | -3.57 ± 0.43 | -1.69 ± 0.32
AUUUAGCAAUAUUACGUGUG | -2.36 ± 0.11 | -1.44 ± 0.11
AUUUAGCAAUAUUACGUUCG | -1.39 ± 0.11 | -0.0499 ± 0.13

Sequence | self-splicing fitness (ln) (30 °C) | self-splicing fitness (ln) (37 °C)
AUUUAGCAAUAUUACGUUCU | -0.544 ± 0.085 | -0.0441 ± 0.12
CAAAAGCAAUAUUACGAACA | -1.95 ± 0.14 | -0.613 ± 0.13
CAAAAGCAAUAUUACGAGGU | -3.46 ± 0.15 | -2.91 ± 0.21
CAAAAGCAAUAUUACGAUCC | -2.58 ± 0.22 | -1.26 ± 0.24
CAAAAGCAAUAUUACGCAUU | -3.45 ± 0.18 | -3.29 ± 0.23
CAAAAGCAAUAUUACGCGAC | -3.52 ± 0.34 | -4.08 ± 0.42
CAAAAGCAAUAUUACGCGUC | -3.72 ± 0.24 | -1.86 ± 0.18
CAAAAGCAAUAUUACGGAAG | -1.23 ± 0.049 | -0.438 ± 0.071
CAAAAGCAAUAUUACGGAGG | -0.939 ± 0.096 | -0.844 ± 0.13
CAAAAGCAAUAUUACGGCCG | 0.257 ± 0.11 | 0.574 ± 0.16
CAAAAGCAAUAUUACGGGAG | -2.05 ± 0.074 | -0.972 ± 0.079
CAAAAGCAAUAUUACGGGGA | -3.26 ± 0.15 | -2.36 ± 0.15
CAAAAGCAAUAUUACGUCAC | -3.63 ± 0.28 | -2.06 ± 0.2
CAAAAGCAAUAUUACGUGGC | -3.26 ± 0.13 | -2.6 ± 0.2
CAAAAGCAAUAUUACGUGGG | -3.26 ± 0.12 | -2.6 ± 0.12
CAAAAGCAAUAUUACGUUCC | -2.34 ± 0.33 | -2.17 ± 0.36
CAACAGCAAUAUUACGAAAU | -2.7 ± 0.12 | -2.47 ± 0.2
CAACAGCAAUAUUACGAACA | -2.43 ± 0.099 | -1.17 ± 0.075
CAACAGCAAUAUUACGAACU | -3.29 ± 0.15 | -0.988 ± 0.11
CAACAGCAAUAUUACGAAGA | -2.55 ± 0.17 | -2.35 ± 0.17
CAACAGCAAUAUUACGAAUU | -4.19 ± 0.26 | -1.84 ± 0.12
CAACAGCAAUAUUACGACUC | -1.74 ± 0.11 | -0.579 ± 0.12
CAACAGCAAUAUUACGAUAC | -3.29 ± 0.28 | -2.91 ± 0.37
CAACAGCAAUAUUACGCGUA | -1.55 ± 0.093 | -1.06 ± 0.088

Sequence | self-splicing fitness (ln) (30 °C) | self-splicing fitness (ln) (37 °C)
CAACAGCAAUAUUACGCUAG | -3.53 ± 0.13 | -2.6 ± 0.14
CAACAGCAAUAUUACGCUCU | -1.33 ± 0.079 | -0.581 ± 0.1
CAACAGCAAUAUUACGGAGA | -3.07 ± 0.2 | -1.82 ± 0.2
CAACAGCAAUAUUACGGCAU | -3.38 ± 0.12 | -1.11 ± 0.09
CAACAGCAAUAUUACGGCCC |  | -2.06 ± 0.33
CAACAGCAAUAUUACGGCGG | -0.393 ± 0.056 | 0.0944 ± 0.082
CAACAGCAAUAUUACGGGAC | -4.18 ± 0.17 | -2.99 ± 0.16
CAACAGCAAUAUUACGGUCG | -0.273 ± 0.041 | 0.0819 ± 0.056
CAACAGCAAUAUUACGUAUA | -2.76 ± 0.12 | -1.55 ± 0.11
CAACAGCAAUAUUACGUCAG | -0.334 ± 0.053 | -0.55 ± 0.066
CAACAGCAAUAUUACGUCGU | -3.65 ± 0.12 | -2.16 ± 0.11
CAACAGCAAUAUUACGUGAA | -1.36 ± 0.056 | -1.62 ± 0.1
CAACAGCAAUAUUACGUGCC | -3.31 ± 0.2 | -1.59 ± 0.15
CAACAGCAAUAUUACGUGGU | -4.16 ± 0.12 | -2.01 ± 0.096
CAAGAGCAAUAUUACGACUC | -2.72 ± 0.24 | -1.84 ± 0.27
CAAGAGCAAUAUUACGACUG | -1.57 ± 0.12 | -1.19 ± 0.19
CAAGAGCAAUAUUACGAGAU | -3.29 ± 0.29 | -2.8 ± 0.28
CAAGAGCAAUAUUACGAGGU | -4.09 ± 0.24 | -2.71 ± 0.23
CAAGAGCAAUAUUACGAGUU | -2.81 ± 0.13 | -2.82 ± 0.18
CAAGAGCAAUAUUACGAUCU |  | -1.79 ± 0.31
CAAGAGCAAUAUUACGCACU | -3.06 ± 0.33 | 
CAAGAGCAAUAUUACGCCAU | -3.2 ± 0.23 | -2.02 ± 0.28
CAAGAGCAAUAUUACGCGAC | -3.73 ± 0.23 | -1.93 ± 0.13
CAAGAGCAAUAUUACGCGGC | -3.74 ± 0.31 | -3.52 ± 0.28
